For this data set, the target named is microtubules prepared from bovine brain tubulin (taxol-stabilized).

B1: baculovirus-expressed S. purpuratus katanin p60 subunit with N-terminal His(6) tag (protein)
chain: HHHHHHMSVDEICENTKMGREYALLGNYETSLVYYQGVLQQIQKLLTSVHEPQRKHQWQTIRQELSQEYEHVKNITKTLNGFKSEPAAPEPAPNHRAAPFSHHQHAAKPAAAEPARDPDVWPPPTPVDHRPSPPYQRAARKDPPRRSEPSKPANRAPGNDRGGRGPSDRRGDARSGGGGRGGARGSDKDKNRGGKSDKDKKAPSGEEGDEKKFDPAGYDKDLVENLERDIVQRNPNVHWADIAGLTEAKRLLEEAVVLPLWMPDYFKGIRRPWKGVLMVGPPGTGKTMLAKAVATECGTTFFNVSSASLTSKYHGESEKLVRLLFEMARFYAPSTIFIDEIDSICSKRGTGSEHEASRRVKSELLIQMDGVSGPSAGEESSKMVMVLAATNFPWDIDEALRRRLEKRIYIPLPEIDGREQLLRINLKEVPLADDIDLKSIAEKMDGYSGADITNVCRDASMMAMRRRIQGLRPEEIRHIPKEELNQPSTPADFLLALQKVSKSVGKEDLVKYMAWMEEFGSV
In the case of B1, the “ATPase activity (malachite green)” value is “p60 alone displayed a microtubule-stimulated ATPase activity”; the “maximal basal and microtubule-stimulated ATPase rates relative to p60/p80” value is “only 2-fold lower than those of the p60/p80 heterodimer”; the “microtubule concentration at peak ATPase stimulation” value is listed as “peak at ˜2 µM tubulin”; the “microtubule severing (fluorescence microscopy assay)” value was “Both p60 and p60/p80 severed microtubules in this assay”. The “rate of microtubule disassembly (DAPI fluorescence assay)” value is listed as “p60 was half as active as p60/p80”.

B2: co-expressed recombinant p60/p80 katanin heterodimer (baculovirus, both subunits with N-terminal His(6) tag) (protein)
chain 1: B1 chain
chain 2: HHHHHHMATKRAWKLQELVAHSSNVNCLALGPMSGRVMVTGGEDKKVNLWAVGKQNCIISLSGHTSPVDSVKFNSSEELVVAGSQSGTMKIYDLEPAKIVRTLTGHRNSIRCMDFHPFGEFVASGSTDTNVKLWDVRRKGCIYTYKGHSDQVNMIKFSPDGKWLVTASEDTTIKLWDLTMGKLFQEFKNHTGGVTGIEFHPNEFLLASGSSDRTVQFWDLETFQLVSSTSPGASAVRSISFHPDGSYLFCSSQDMLHAFGWEPIRCFDTFSVGWGKVADTVIASTQLIGASFNATNVSVYVADLSRMSTTGIAQEPQSQPSKTPSGGAEEVPSKPLTASGRKNFVRERPHTTSSKQRQPDVKSEPERQSPTQDEGVKDDDATDIKDPDSYAKIFSPKTRVDHSPERNAQPFPAPLDVPGAQEPEPFKHPPKPAAAAAVAPVSRAPAPSASDWQPAQANPAPNRVPAATKPVPAQEVAPSRKPDPISTIIPSDRNKPANLDMDAFLPPAHAQQAPRVNAPASRKQSDSERIEGLRKGHDSMCQVLSSRHRNLDVVRAIWTAGDAKTSVESVVNMKDQAILVDILNIMLLKKSLWNLDMCVVVLPRLKELLSSKYENYVHTSCACLKLILKNFTSLFNQNIKCPPSGIDITREERYNKCSKCYSYLIATRGYVEEKQHVSGKLGSSFRELHLLLDQLE
Take B2: the “ATPase activity (malachite green), stimulation by microtubules” value is “this activity was stimulated ˜10-fold by microtubules”; the “maximal microtubule-stimulated ATPase rate” value is given as “maximal microtubule-stimulated rate of 3 ATP/katanin/sec”; the “microtubule concentration at peak ATPase stimulation” value is “peak at ˜2 µM tubulin”; the “microtubule severing (fluorescence microscopy assay)” value was “Both p60 and p60/p80 severed microtubules in this assay”.

Values taken from patent US6429304.
